From US20180186891A1 (PHILOGEN, published 2018) come the findings set out here.

The target of the test is T1, biotinylated Mouse FAP extracellular domain (mouse, UniProt P97321 26-761, biotinylated (site not stated)).
T1 construct: extracellular domain; also called murine antigen
T1 sequence (looked up): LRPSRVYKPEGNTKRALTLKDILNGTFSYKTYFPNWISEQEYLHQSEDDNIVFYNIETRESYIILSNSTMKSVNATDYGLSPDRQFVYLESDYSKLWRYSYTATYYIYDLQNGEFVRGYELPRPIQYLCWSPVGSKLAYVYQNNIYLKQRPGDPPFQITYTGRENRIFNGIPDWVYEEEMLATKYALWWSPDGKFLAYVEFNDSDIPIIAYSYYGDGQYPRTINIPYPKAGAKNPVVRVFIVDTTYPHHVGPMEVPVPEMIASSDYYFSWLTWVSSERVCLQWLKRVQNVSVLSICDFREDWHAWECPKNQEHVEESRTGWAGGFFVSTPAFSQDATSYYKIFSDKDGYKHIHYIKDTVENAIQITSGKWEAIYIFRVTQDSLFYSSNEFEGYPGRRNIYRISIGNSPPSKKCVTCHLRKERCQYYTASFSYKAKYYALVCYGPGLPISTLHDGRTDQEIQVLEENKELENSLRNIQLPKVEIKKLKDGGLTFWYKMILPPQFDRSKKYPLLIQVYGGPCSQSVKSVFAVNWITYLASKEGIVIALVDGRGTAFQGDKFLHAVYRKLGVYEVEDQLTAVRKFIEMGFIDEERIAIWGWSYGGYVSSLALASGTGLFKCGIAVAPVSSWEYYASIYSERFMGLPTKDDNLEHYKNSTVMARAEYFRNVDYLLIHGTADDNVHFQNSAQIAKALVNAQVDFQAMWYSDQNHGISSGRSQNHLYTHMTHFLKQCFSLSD
The test is described as follows: ELISA, biotinylated FAP extracellular domain on streptavidin strips, detection with anti-Myc 9E10. As for the experimental part: ELISA: Streptawell High Bind strips (Roche) were coated with biotinylated Human or Mouse FAP extracellular domain at 100 nM. Cross reactivity with human and murine antigen of the anti-FAP F5 antibody was assessed by detection with the anti-Myc antibody 9E10 and an HRP-conjugated anti-Murine Fc antibody (Sigma). Calorimetric detection of antibody-antigen binding was performed using BM-Blue POD soluble substrate (Roche).
A general note: ELISA stands for enzyme-linked immunosorbent assay.

B1: antibody F5 (in scFv format) (scFv, V domains shown)
VH: EVQLLESGGGLVQPGGSLRLSCAASGFTFSPAYMSWVRQAPGKGLEWVSAISGSGGSTYYADSVKGRFTISRDNSKNTLYLQMNSLRAEDTAVYYCAKGWRAFDYWGQGTLVTVSS
VL: EIVLTQSPGTLSLSPGERATLSCRASQSVSRNYLAWYQQKPGQAPRLLIYGASSRATGIPDRFSGSGSGTDFTLTISRLEPEDFAVYYCQQSLGYPPTFGQGTKVEIK
notes: Tested as a single-chain Fv; Detection with anti-Myc antibody 9E10 implies a myc tag; also called F5 antibody; anti-FAP F5 antibody
Take B1: the binding result is reported as “binds”.
